According to publication PMC3630055, “Bovine HEXIM1 inhibits bovine immunodeficiency virus replication through regulating BTat-mediated transactivation” (Veterinary Research, 2013):

Molecular target: T1, His-BHEXIM1 (bovine, UniProt Q0X0C4 1-320)
T1 construct: bovine HEXIM1 (320 amino acids); pETH vector; the only BHEXIM1 cDNA described was amplified from the start to the stop codon (320 aa), so the construct is probably whole; also called purified BHEXIM1 protein; source: E. coli BL21 (DE3), purified (His Sepharose 6)
T1 sequence (looked up): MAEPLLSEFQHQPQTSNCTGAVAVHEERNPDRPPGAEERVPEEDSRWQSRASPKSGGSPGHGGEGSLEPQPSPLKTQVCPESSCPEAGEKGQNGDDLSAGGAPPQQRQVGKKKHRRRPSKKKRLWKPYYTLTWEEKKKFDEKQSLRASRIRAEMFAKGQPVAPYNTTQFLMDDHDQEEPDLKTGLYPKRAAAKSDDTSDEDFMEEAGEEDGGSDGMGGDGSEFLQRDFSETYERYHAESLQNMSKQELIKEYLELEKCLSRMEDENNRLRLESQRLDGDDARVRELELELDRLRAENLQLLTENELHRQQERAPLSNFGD
Assay: pull-down; purified GST or GST-B-cyclin T1 immobilised on glutathione Sepharose 4B beads, incubated with purified His-fusion proteins; anti-His immunoblot; in the competition 20 μg GST-B-cyclin T1, 5 μg His-BTat and 1, 5, 10, 20 μg His-BHEXIM1
Details: both partners purified

B1: GST-B-cyclin T1 (aa 1-272) (domain or fragment, bovine, UniProt Q6T8E9 1-272, looked up)
chain: MEGERKNNNKRWYFTREQLENSPSRRFGLDPDKELSNRQQAANLLQDMGQRLNVSQLTINTAIVYMHRFYMIQSFTQFHRNSVAPAALFLAAKVEEQPKKLEHVIKVAHTCLHPQESLPDTRSEAYLQQVQDLVILESIILQTLGFELTIDHPHTHVVKCTQLVRASKDLAQTSYFMATNSLHLTTFSLQYTPPVVACVCIHLACKWSNWEIPVSTDGKHWWEYVDATVTLELLDELTHEFLQILEKTPNRLKRIWNWRAWQADRKTKADDR
notes: bovine cyclin T1, residues 1-272; pGEX6p-1 vector; source: E. coli BL21 (DE3), purified (glutathione Sepharose 4B)
B1: binds.
